Activity (3H radioactivity (units not stated)) data for one sequence are collected here from patent US20030040614.

The test system of this data set is GsuI restriction endonuclease. As to conditions: methylation of top strand; bottom strand 664; B+ buffer, 30 uM AdoMet, 37 C 3 h.

With “AGTTCTGGAGCATCGTTCACCGGTTACAAC / TGGTTGTAACCGGTAACGGATGCTCCAGAACTTCTC [duplex #1 GsuI site]”, the activity (3H radioactivity (units not stated)) stood at 13200.
